Results from publication PMC11063116.

Substrate: NCCCN
Assay: purified protein
Conditions: 2 mM putrescine, 0.6 mM NAD+, 100 mM Tris-HCl pH 9, 50 °C

Protein	Km	kcat	kcat/Km
BvHSS (homospermidine synthase) (Blastochloris viridis) (protein) MTDWPVYHRIDGPIVMIGFGSIGRGTLPLIERHFAFDRSKLVVIDPSDEARKLAEARGVRFIQQAVTRDNYRELLVPLLTAGPGQGFCVNLSVDTSSLDIMELARENGALYIDTVVEPWLGFYFDPDLKPEARSNYALRETVLAARRNKPGGTTAVSCCGANPGMVSWFVKQALVNLAADLGVTGEEPTTREEWARLAMDLGVKGIHIAERDTQRASFPKPFDVFVNTWSVEGFVSEGLQPAELGWGTFERWMPDNARGHDSGCGAGIYLLQPGANTRVRSWTPTAMAQYGFLVTHNESISIADFLTVRDAAGQAVYRPTCHYAYHPCNDAVLSLHEMFGSGKRQSDWRILDETEIVDGIDELGVLLYGHGKNAYWYGSQLSIEETRRIAPDQNATGLQVSSAVLAGMVWALENPNAGIVEADDLDFRRCLEVQTPYLGPVVGVYTDWTPLAGRPGLFPEDIDTSDPWQFRNVLVRD	490 ± 30 µM	13.6 s⁻¹	27800 M⁻¹ s⁻¹
BvHSS (homospermidine synthase) (Blastochloris viridis; D361E/E232D) (protein) MTDWPVYHRIDGPIVMIGFGSIGRGTLPLIERHFAFDRSKLVVIDPSDEARKLAEARGVRFIQQAVTRDNYRELLVPLLTAGPGQGFCVNLSVDTSSLDIMELARENGALYIDTVVEPWLGFYFDPDLKPEARSNYALRETVLAARRNKPGGTTAVSCCGANPGMVSWFVKQALVNLAADLGVTGEEPTTREEWARLAMDLGVKGIHIAERDTQRASFPKPFDVFVNTWSVDGFVSEGLQPAELGWGTFERWMPDNARGHDSGCGAGIYLLQPGANTRVRSWTPTAMAQYGFLVTHNESISIADFLTVRDAAGQAVYRPTCHYAYHPCNDAVLSLHEMFGSGKRQSDWRILDETEIVDGIEELGVLLYGHGKNAYWYGSQLSIEETRRIAPDQNATGLQVSSAVLAGMVWALENPNAGIVEADDLDFRRCLEVQTPYLGPVVGVYTDWTPLAGRPGLFPEDIDTSDPWQFRNVLVRD	310 ± 20 µM	21.1 s⁻¹	68000 M⁻¹ s⁻¹
BvHSS (homospermidine synthase) (Blastochloris viridis; D361E) (protein) MTDWPVYHRIDGPIVMIGFGSIGRGTLPLIERHFAFDRSKLVVIDPSDEARKLAEARGVRFIQQAVTRDNYRELLVPLLTAGPGQGFCVNLSVDTSSLDIMELARENGALYIDTVVEPWLGFYFDPDLKPEARSNYALRETVLAARRNKPGGTTAVSCCGANPGMVSWFVKQALVNLAADLGVTGEEPTTREEWARLAMDLGVKGIHIAERDTQRASFPKPFDVFVNTWSVEGFVSEGLQPAELGWGTFERWMPDNARGHDSGCGAGIYLLQPGANTRVRSWTPTAMAQYGFLVTHNESISIADFLTVRDAAGQAVYRPTCHYAYHPCNDAVLSLHEMFGSGKRQSDWRILDETEIVDGIEELGVLLYGHGKNAYWYGSQLSIEETRRIAPDQNATGLQVSSAVLAGMVWALENPNAGIVEADDLDFRRCLEVQTPYLGPVVGVYTDWTPLAGRPGLFPEDIDTSDPWQFRNVLVRD	430 ± 60 µM	19.3 s⁻¹	45000 M⁻¹ s⁻¹
